Measurements published in patent US20100144029.

Target: ClpP proteasome (UniProt P0A6G7)

For “processed E. coli ClpX protein (after proteolytic removal of the T7B carboxyl-terminal extension)”, the “ATPase activity and ability to cooperate with the ClpP proteasome in degrading model protein substrates” value was “full biological activity”.
